Test results from publication PMC5171940 (2016).
Where no end group is shown, it is not given here.

Key:
[1] = target: T1, Aβ monomers on the SPR chip: biotinylated Aβ 11–28 (also: biotin, position not given here); experiment: SPR
T1 chain: EVHHQKLVFFAEDVGSNK

[2] = target: Aβ oligomers: soluble prefibrillar aggregates of biotinylated Aβ(1–42) (biotin (position not given)); experiment: SPR
Chain of Aβ oligomers: soluble prefibrillar aggregates of biotinylated Aβ(1–42) (biotin (position not given)) (P05067 672-713): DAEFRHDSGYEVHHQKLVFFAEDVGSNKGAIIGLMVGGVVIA

Kd [1]: 3.2 nM
Kd [2]: 0.42 nM
B1: Crenezumab, fully humanized anti-Aβ monoclonal IgG4 (antibody, V domains shown)
VH: EVQLVESGGGLVQPGGSLRLSCAASGFTFSSYGMSWVRQAPGKGLELVASINSNGGSTYYPDSVKGRFTISRDNAKNSLYLQMNSLRAEDTAVYYCASGDYWGQGTTVTVSS
VL: DIVMTQSPLSLPVTPGEPASISCRSSQSLVYSNGDTYLHWYLQKPGQSPQLLIYKVSNRFSGVPDRFSGSGSGTDFTLKISRVEAEDVGVYYCSQSTHVPWTFGQGTKVEIK
